# Data reported in paper PMC8523169, “Competitive binding of MatP and topoisomerase IV to the MukB hinge domain” (eLife, 2021).
# Read-outs that look alike come from different tables or passages of the source.
# T1: MukB long hinge (LH; amino acid residues 568–863) (E. coli, UniProt P22523 568-863)
# T1 construct: MukB, E. coli, residues 568-863: dimeric globular hinge domain and 20% of the coiled-coil region; also called LH (MBP cleaved); LH2; source: NEBExpress cells (pMAL-c5X), purified (amylose, Factor Xa cleavage, HiTrap Q XL, SEC); not shown: MBP, N-terminal, cleaved
# T1 sequence (looked up): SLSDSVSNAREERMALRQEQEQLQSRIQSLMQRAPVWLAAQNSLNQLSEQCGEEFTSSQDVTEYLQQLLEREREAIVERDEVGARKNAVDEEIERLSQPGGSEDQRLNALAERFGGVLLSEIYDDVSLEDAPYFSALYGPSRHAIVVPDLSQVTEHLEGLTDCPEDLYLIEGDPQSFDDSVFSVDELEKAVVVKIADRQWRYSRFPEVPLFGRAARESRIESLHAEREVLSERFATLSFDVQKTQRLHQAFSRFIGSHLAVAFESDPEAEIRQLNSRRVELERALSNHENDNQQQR
# T2: full-length MukB^KKK (D697K D745K E753K) (E. coli, UniProt P22523 1-1486, D697K | D745K | E753K)
# T2 construct: MukB, E. coli, full length, with three hinge substitutions
# T2 sequence (looked up): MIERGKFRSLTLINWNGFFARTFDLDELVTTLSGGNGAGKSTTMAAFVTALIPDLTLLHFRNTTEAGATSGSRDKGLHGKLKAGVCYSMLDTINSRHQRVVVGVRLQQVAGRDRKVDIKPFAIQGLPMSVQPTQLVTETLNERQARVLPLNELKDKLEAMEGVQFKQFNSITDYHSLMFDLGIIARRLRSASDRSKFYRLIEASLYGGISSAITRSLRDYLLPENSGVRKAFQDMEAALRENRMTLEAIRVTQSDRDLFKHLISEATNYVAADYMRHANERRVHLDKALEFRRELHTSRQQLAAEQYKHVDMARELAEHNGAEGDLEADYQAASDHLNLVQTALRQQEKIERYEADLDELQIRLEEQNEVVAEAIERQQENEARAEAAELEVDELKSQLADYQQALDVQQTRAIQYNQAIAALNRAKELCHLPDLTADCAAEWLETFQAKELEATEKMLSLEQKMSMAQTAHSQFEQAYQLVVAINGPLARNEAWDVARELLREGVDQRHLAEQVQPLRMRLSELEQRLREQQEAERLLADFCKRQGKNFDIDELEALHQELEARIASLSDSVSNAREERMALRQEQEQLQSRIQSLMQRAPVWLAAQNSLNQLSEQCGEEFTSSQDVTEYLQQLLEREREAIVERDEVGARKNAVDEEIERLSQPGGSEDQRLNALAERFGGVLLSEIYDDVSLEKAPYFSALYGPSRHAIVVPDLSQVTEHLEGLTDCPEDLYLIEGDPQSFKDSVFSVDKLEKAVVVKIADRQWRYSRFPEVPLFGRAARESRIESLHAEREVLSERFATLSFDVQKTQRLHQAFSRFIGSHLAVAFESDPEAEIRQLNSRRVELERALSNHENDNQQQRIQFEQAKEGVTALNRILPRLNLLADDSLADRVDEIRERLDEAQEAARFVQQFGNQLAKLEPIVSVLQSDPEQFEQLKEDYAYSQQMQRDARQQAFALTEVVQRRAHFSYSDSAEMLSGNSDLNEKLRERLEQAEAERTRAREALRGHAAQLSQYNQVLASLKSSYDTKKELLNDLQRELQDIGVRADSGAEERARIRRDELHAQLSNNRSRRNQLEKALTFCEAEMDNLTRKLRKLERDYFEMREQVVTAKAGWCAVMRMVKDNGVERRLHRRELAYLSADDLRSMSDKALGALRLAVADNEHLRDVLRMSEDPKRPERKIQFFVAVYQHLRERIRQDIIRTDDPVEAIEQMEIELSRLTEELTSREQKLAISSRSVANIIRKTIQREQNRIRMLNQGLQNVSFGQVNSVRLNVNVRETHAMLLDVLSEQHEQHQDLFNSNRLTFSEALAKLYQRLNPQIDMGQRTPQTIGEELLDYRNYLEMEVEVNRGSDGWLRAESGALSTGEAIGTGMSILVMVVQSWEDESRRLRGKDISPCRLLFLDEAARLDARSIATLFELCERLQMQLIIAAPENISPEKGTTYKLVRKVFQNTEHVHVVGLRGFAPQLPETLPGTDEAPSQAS
# T3: full-length MukB (wild type) (E. coli, UniProt P22523 1-1486)
# T3 construct: MukB, E. coli, full length; also called WT MukB; unlabeled MukB; source: purified as described (Zawadzka et al., 2018)
# T3 sequence (looked up): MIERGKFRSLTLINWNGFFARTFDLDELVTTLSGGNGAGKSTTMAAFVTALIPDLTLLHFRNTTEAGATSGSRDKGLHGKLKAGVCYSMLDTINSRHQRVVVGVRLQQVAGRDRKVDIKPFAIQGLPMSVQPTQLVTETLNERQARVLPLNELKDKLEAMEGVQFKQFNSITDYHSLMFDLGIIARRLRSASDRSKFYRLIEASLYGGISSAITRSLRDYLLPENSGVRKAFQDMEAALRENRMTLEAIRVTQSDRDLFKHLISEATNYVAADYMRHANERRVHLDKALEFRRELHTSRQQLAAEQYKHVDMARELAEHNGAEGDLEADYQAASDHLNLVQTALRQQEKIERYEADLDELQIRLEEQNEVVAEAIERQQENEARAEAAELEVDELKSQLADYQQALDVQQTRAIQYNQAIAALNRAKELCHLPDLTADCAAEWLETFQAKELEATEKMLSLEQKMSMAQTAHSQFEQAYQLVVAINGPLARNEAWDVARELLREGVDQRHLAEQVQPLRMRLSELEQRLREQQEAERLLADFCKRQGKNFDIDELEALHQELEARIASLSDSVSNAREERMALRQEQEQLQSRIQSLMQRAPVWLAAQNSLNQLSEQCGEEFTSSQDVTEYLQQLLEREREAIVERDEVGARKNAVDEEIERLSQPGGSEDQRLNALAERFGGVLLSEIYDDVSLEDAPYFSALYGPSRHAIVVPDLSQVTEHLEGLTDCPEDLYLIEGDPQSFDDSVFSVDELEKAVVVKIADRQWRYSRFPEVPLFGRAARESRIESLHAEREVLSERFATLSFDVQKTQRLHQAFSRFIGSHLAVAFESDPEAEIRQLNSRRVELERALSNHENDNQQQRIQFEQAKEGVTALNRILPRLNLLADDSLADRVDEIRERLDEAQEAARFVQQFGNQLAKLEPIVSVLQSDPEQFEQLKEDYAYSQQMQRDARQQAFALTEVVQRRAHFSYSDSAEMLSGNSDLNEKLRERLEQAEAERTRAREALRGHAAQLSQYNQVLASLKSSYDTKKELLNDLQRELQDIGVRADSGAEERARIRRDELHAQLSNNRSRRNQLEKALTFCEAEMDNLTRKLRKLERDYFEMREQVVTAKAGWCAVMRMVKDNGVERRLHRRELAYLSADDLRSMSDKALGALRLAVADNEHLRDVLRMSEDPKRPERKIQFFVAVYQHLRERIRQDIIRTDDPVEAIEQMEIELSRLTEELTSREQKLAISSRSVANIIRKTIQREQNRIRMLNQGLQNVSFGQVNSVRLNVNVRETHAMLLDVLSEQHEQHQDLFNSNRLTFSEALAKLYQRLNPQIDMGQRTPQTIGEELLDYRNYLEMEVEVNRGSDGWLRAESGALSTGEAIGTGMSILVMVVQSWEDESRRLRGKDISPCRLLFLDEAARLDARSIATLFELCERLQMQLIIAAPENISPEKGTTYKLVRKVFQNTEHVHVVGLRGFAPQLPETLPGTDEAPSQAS
# Legend:
# [1] = biological target: T1, MukB long hinge (LH; amino acid …); test: ITC; 100 µM MatP titrated into 10 µM LH at 25 °C; one-site model; three repeats; conditions: both partners purified
# [2] = biological target: T1, MukB long hinge (LH; amino acid …); test: native MS; proteins buffer exchanged into 200 mM ammonium acetate pH 8.0, alone or mixed in different ratios (two or three components, with or without 50 bp DNA), 10 min on ice; conditions: both partners purified
# [3] = biological target: the molecule itself; test: as above
# [4] = biological target: T1, MukB long hinge (LH; amino acid …); test: native gel or EMSA; native PAGE; MatP or variants (7 µM) mixed with LH and/or 50 bp DNA at 1:1(:1), 30 min on ice; Coomassie and ethidium bromide staining; conditions: both partners purified
# [5] = biological target: the molecule itself; test: native MS; proteins buffer exchanged into 200 mM ammonium acetate pH 8.0, alone or mixed in different ratios (two or three components, with or without 50 bp DNA), 10 min on ice; remark: listed apart in the source
# [6] = biological target: T2, full-length MukB^KKK (D697K D745K E753K); test: fluorescence correlation spectroscopy (FCS); titration at constant 1 nM MatP-Cy3B; 20 mM Tris-HCl pH 7.5, 50 mM NaCl, 0.3 mg/mL BSA, 2 mM DTT, 0.05% Tween-20; 22 °C; fitted to the Hill equation; conditions: both partners purified
# [7] = biological target: T3, full-length MukB (wild type); test: as above; conditions: both partners purified
# [8] = biological target: T3, full-length MukB (wild type); test: fluorescence correlation spectroscopy (FCS); competition: MatP-Cy3B fixed at 1 nM, MukB at 400 nM; ParC variants at 10-fold, unlabeled MatP at 50-fold, DNA at 2.5-fold molar excess; conditions: both partners purified
binder,measurement,setting,value
"MatPΔ18C (1–132), C-terminal 6xHis-tag (domain or fragment, E. coli, UniProt P0A8N0 1-132, looked up, MatP, E. coli, residues 1-132 (deletion of the 18 C-terminal residues); also called MatPΔ18C-His; MatP2; source: overexpressed, purified as previously published (Nolivos et al., 2016) with an added SEC step; not shown: His6, C-terminal, kept) MKYQQLENLESGWKWKYLVKKHREGELITRYIEASAAQEAVDVLLSLENEPVLVNGWIDKHMNPELVNRMKQTIRARRKRHFNAEHQHTRKKSIDLEFIVWQRLAGLAQRRGKTLSETIVQLIEDAENKEKY",Kd,[1],590 nM
same,dH,[1],-16.8 kcal/mol
same,stoichiometry N,[1],0.96
same,stoichiometry N,[2],1 MatP dimer per LH dimer
same,stoichiometry N,[3],2
"MatP^4A (K71A, Q72A, R75A, and R77A) (domain or fragment, E. coli, UniProt P0A8N0 1-132, looked up, MatP, E. coli, residues 1-132 (MatPΔ18C) with four substitutions; source: site-directed mutagenesis, purified using the same protocol as MatP) MKYQQLENLESGWKWKYLVKKHREGELITRYIEASAAQEAVDVLLSLENEPVLVNGWIDKHMNPELVNRMAATIAAARKRHFNAEHQHTRKKSIDLEFIVWQRLAGLAQRRGKTLSETIVQLIEDAENKEKY",binding result,[4],binds
same,stoichiometry N,[5],2
"Cy3B-labeled MatP-Cys-His (domain or fragment, E. coli, Cy3B maleimide on the single cysteine engineered into the C-terminal linker, MatP, E. coli, residues 1-132 (MatPΔ18C); C-terminal linker between MatP and its 6xHis-tag with the engineered cysteine; Labeling efficiency 89%; also called MatP-Cy3B; Cy3B-MatP; source: purified as MatP, labeled with Cy3B maleimide, excess dye removed by SEC) MKYQQLENLESGWKWKYLVKKHREGELITRYIEASAAQEAVDVLLSLENEPVLVNGWIDKHMNPELVNRMKQTIRARRKRHFNAEHQHTRKKSIDLEFIVWQRLAGLAQRRGKTLSETIVQLIEDAENKEKYSDPNSSSVDKLCAAALE",Kd,[6],~1600 nM
same,Kd,[7],~250 nM
"full-length ParC, N-terminal 6xHis-tag (enzyme, E. coli, UniProt P0AFI2 1-752, looked up, ParC subunit of topoisomerase IV, E. coli, full length; also called His-ParC; ParC2; source: overexpressed, purified as previously published (Nolivos et al., 2016) with an added SEC step; not shown: His6, N-terminal, kept) MSDMAERLALHEFTENAYLNYSMYVIMDRALPFIGDGLKPVQRRIVYAMSELGLNASAKFKKSARTVGDVLGKYHPHGDSACYEAMVLMAQPFSYRYPLVDGQGNWGAPDDPKSFAAMRYTESRLSKYSELLLSELGQGTADWVPNFDGTLQEPKMLPARLPNILLNGTTGIAVGMATDIPPHNLREVAQAAIALIDQPKTTLDQLLDIVQGPDYPTEAEIITSRAEIRKIYENGRGSVRMRAVWKKEDGAVVISALPHQVSGARVLEQIAAQMRNKKLPMVDDLRDESDHENPTRLVIVPRSNRVDMDQVMNHLFATTDLEKSYRINLNMIGLDGRPAVKNLLEILSEWLVFRRDTVRRRLNYRLEKVLKRLHILEGLLVAFLNIDEVIEIIRNEDEPKPALMSRFGLTETQAEAILELKLRHLAKLEEMKIRGEQSELEKERDQLQGILASERKMNNLLKKELQADAQAYGDDRRSPLQEREEAKAMSEHDMLPSEPVTIVLSQMGWVRSAKGHDIDAPGLNYKAGDSFKAAVKGKSNQPVVFVDSTGRSYAIDPITLPSARGQGEPLTGKLTLPPGATVDHMLMESDDQKLLMASDAGYGFVCTFNDLVARNRAGKALITLPENAHVMPPVVIEDASDMLLAITQAGRMLMFPVSDLPQLSKGKGNKIINIPSAEAARGEDGLAQLYVLPPQSTLTIHVGKRKIKLRPEELQKVTGERGRRGTLMRGLQRIDRVEIDSPRRASSGDSEE",stoichiometry N,[3],2
same,fold decrease in MatP-Cy3B binding to MukB at 10-fold excess of competitor,[8],3 fold
